Source: patent US20190077849A1

Experiments:
Assay in all cases: cell-based or functional assay
[1] = target: HIV-1 Env of 6095.V1.C10.SG3 pseudovirus (clade ACD) (HIV-1)
[2] = target: HIV-1 Env of ZM106.9.SG3 pseudovirus (clade C) (HIV-1)
[3] = target: HIV-1 Env of CNE31.SG3 pseudovirus (clade C) (HIV-1)
[4] = target: HIV-1 Env of YU2.DG.SG3 pseudovirus (clade B) (HIV-1) (UniProt P35961)
[5] = target: HIV-1 Env of PVO.04.SG3 pseudovirus (clade B) (HIV-1)
[6] = target: HIV-1 Env of ZM215.8.SG3 pseudovirus (clade C) (HIV-1)
[7] = target: HIV-1 Env of TH966.8.SG3 pseudovirus (clade AE) (HIV-1)
[8] = target: HIV-1 Env of 6101.10.SG3 pseudovirus (clade B) (HIV-1)
[9] = target: HIV-1 Env of KER2008.12.SG3 pseudovirus (clade A) (HIV-1)

10E8v4 S100cR (antibody), sequence (VH): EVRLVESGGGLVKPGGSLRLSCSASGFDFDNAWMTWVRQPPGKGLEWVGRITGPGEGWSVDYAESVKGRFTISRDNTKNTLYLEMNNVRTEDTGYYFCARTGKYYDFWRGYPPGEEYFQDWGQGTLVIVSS
10E8v4 S100cR (antibody), sequence (VL): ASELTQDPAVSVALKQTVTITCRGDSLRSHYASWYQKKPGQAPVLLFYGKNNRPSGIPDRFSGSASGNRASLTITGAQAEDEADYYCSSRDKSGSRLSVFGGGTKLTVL
10E8v4 S100cL (antibody), sequence (VH): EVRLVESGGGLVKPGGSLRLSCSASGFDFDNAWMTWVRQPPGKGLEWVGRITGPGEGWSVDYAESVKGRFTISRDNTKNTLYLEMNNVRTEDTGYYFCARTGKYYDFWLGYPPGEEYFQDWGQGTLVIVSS
10E8v4 S100cL (antibody), sequence (VL): as the sequence (VL) above
10E8v4 S100cY (antibody), sequence (VH): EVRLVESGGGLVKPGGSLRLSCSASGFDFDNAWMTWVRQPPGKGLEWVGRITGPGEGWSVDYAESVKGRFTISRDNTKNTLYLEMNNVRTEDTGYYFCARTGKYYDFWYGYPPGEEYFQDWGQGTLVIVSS
10E8v4 S100cY (antibody), sequence (VL): as the sequence (VL) above

Row | Substance | IC50, pseudovirus neutralization [1] | IC80, pseudovirus neutralization [1] | IC50, pseudovirus neutralization [2] | IC80, pseudovirus neutralization [2] | IC50, pseudovirus neutralization [3] | IC80, pseudovirus neutralization [3] | IC50, pseudovirus neutralization [4] | IC80, pseudovirus neutralization [4] | IC50, pseudovirus neutralization [5] | IC80, pseudovirus neutralization [5] | IC50, pseudovirus neutralization [6] | IC80, pseudovirus neutralization [6] | IC50, pseudovirus neutralization [7] | IC80, pseudovirus neutralization [7] | IC50, pseudovirus neutralization [8] | IC80, pseudovirus neutralization [8] | IC50, pseudovirus neutralization [9] | IC80, pseudovirus neutralization [9]
1 | 10E8v4 S100cL (antibody) | 0.001 µg/mL | 0.002 µg/mL | > 50 µg/mL | > 50 µg/mL | 0.354 µg/mL | 1.01 µg/mL | 0.333 µg/mL | 1.75 µg/mL | 0.507 µg/mL | 2.21 µg/mL | 0.015 µg/mL | 0.095 µg/mL | 0.011 µg/mL | 0.079 µg/mL | 0.007 µg/mL | 0.049 µg/mL | > 50 µg/mL | > 50 µg/mL
2 | 10E8v4 S100cR (antibody) | 0.011 µg/mL | 0.048 µg/mL | > 50 µg/mL | > 50 µg/mL | 2.54 µg/mL | 8.42 µg/mL | 3.87 µg/mL | 12 µg/mL | 6.45 µg/mL | 25 µg/mL | 0.363 µg/mL | 1.34 µg/mL | 0.168 µg/mL | 0.648 µg/mL | 0.176 µg/mL | 0.891 µg/mL | > 50 µg/mL | > 50 µg/mL
3 | 10E8v4 S100cY (antibody) | 0.001 µg/mL | 0.006 µg/mL | > 50 µg/mL | > 50 µg/mL | 0.368 µg/mL | 1.39 µg/mL | 0.376 µg/mL | 2.25 µg/mL | 0.412 µg/mL | 3.44 µg/mL | 0.028 µg/mL | 0.129 µg/mL | 0.011 µg/mL | 0.075 µg/mL | 0.009 µg/mL | 0.063 µg/mL | > 50 µg/mL | > 50 µg/mL
